Source: US9631002B2, “Methods and compositions for producing active vitamin K-dependent proteins” (The University of North Carolina at Chapel Hill, priority 2010, dated 2017)

What was measured:
[1] = test system: carboxylation of FIXgla-PC reporter protein in HEK293 cells (reduction of KO to vitamin K); test: Cell-based VKOR activity assay: recombinant VKOR/VKORH expressed in FIXgla-PC/HEK293 cells with KO and warfarin, carboxylated reporter by ELISA; parameters: species or system human
[2] = test system: carboxylation of FIXgla-PC reporter protein in AV12 cells (reduction of vitamin K to KH2); test: Cell-based VKOR activity assay in FIXgla-PC/AV12 or FIXgla-PC/VKOR-Y139F/AV12 cells, carboxylated reporter by ELISA; parameters: species or system Syrian golden hamster

Row | Molecule | ability of human VKOR with replaced residues 122-139 to use KO to carboxylate the reporter ([1]; 5 μM KO, 2 μM warfarin, 48 h, HEK293 (FIG. 11C)) | ability of human VKOR with replaced residues 122-139 to use vitamin K to carboxylate the reporter ([2]; 11 μM K, 2 μM warfarin, 48 h, FIXgla-PC AV-12 (FIG. 11B)) | activity relative to human VKOR-Y139F ([1]; 5 μM KO, 4 μM warfarin, 48 h, luciferase-normalized (FIG. 15B)) | Relative activity: Human Y139F ([1]; VKOR of the organism compared to human Y139F VKOR, cell-based carboxylation) | activity relative to human VKOR (Y139F) ([1]; both human forms carry Y139F, 5 μM KO, 2 μM warfarin) | support of reporter protein carboxylation ([2]; transient expression in FIXgla-PC/AV12 not stably expressing VKOR-Y139F, KO and warfarin (FIG. 19B)) | activity in reducing vitamin K to KH2 to support carboxylation ([2]; transient expression in FIXgla-PC/VKOR-Y139F/AV12, KO and warfarin (FIG. 19A))
1 | hVKOR M. tuberculosis: human VKOR with residues 122-139 replaced by M. tuberculosis VKOR 129-146, SEQ ID NO:29 (protein, Human VKOR with amino acids 122-139 substituted with amino acids 129-146 of M. tuberculosis VKOR (RefSeq accession no. NP_217484)) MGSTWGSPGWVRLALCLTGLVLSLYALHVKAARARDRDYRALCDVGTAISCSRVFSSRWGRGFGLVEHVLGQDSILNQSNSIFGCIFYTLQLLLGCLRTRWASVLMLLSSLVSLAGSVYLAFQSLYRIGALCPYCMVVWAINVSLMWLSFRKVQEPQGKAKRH | functions as a VKOR | can utilize vitamin K to produce carboxylated reporter protein | – | – | – | – | –
2 | MT-VKORH: Mycobacterium tuberculosis VKOR homologue, NP_217484, SEQ ID NO:18 (protein, listed as Mycobacterium tuberculosis) MVAARPAERSGDPAAVRVPVPSAWWVLIGGVIGLFASMTLTVEKVRILLDPIYVPSCNVNPIVSCGSVMTTPQASLLGFPNPLLGIAGFTVVVVTGVLAVAKVPLPRWYWIGLAVGILVGVAFVHWLIFQSLYRIGALCPYCMVVWAVIATLLVVVASIVFGPMRENRGSQERVGARLLYQWRWSLATLWFTTVFLLIMVRFWDYSTLI | – | – | 2.5 fold | Yes, greater | 2 fold | produced significant carboxylated reporter protein | significant activity
